Target: T1, human dominant-negative Gαi1 (S47N, G203A, A326S and E245A) (human, UniProt P63096 1-354, S47N | G203A | A326S | E245A)
T1 construct: The alpha-helical domain had no clear density in the map; also called Gα subunit; Gαi subunit; source: Sf9 cells co-infected with baculoviruses encoding each component; co-purified with the BLT1/Gi complex
Test: cryo-EM structure; single-particle cryo-EM of the LTB4-bound BLT1/Gi complex (with scFv16, NanoBiT tether); components co-expressed in Sf9, complex purified on amylose, TEV cut, gel filtration in 25 mM Hepes pH 7.5, 150 mM NaCl, LMNG/GDN/CHS; LTB4 300 nM throughout
Conditions: both partners purified

T1 sequence (P63096 whole entry S47N/G203A/E245A/A326S, the tested form may be a part): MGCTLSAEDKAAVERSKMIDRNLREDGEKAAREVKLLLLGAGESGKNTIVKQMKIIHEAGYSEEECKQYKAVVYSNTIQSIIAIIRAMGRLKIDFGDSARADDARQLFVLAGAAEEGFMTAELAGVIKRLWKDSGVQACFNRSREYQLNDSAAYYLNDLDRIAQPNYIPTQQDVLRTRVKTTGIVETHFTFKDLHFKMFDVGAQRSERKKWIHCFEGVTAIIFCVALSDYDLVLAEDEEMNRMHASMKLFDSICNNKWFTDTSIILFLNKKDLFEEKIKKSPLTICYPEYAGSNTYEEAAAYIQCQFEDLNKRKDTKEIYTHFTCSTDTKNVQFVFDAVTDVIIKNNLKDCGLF

B1: engineered human leukotriene B4 receptor 1 (BLT1) with 4 thermostabilizing mutations and a C-terminal LgBiT fusion (receptor)
chain: MNTTSSAAPPSLGVEFISLLAIILLSVALAVGLPGNSFVVWSILKRMQKRSVTALMVLNLALADLAVLLTAPFFLHFLAQGTWSFGLAGCRLCHYVCGVSMYASVWLITAMSLDRSLAVARPFVSQKLRTKAMARRVLAGIWVLSFLLATPVLAYRTVVPWKTNMSLCFPRYPSEGHRAFHLIFEAVTGFLLPFLIVVASYSDIGRRLQARRFRRSRRTGRLVVLIILTFAAFWLPYHVVNLAEAGRALAGQAAGLGLVGKRLSLARNVLIALAFLSSSVNPVLYAFAGGGLLRSAGVGFVAKLLEGTGAEASSTRRGGSLGQTARSGPAALEPGPSESLTASSPLKLNELN
notes: human leukotriene B4 receptor 1 (BLT1), codon-optimized gene; model lacks the first 14 residues and the C-tail after residue 301; A TEV site stands between LgBiT and 2x MBP; LgBiT on the receptor pairs with HiBiT on Gbeta1 (NanoBiT tethering strategy); also called BLT1R; the receptor; source: Sf9 cells co-infected with baculoviruses encoding each component; complex purified (amylose column, TEV …)
binding result: binds

Source: article PMC8894450, “Structural basis of leukotriene B4 receptor 1 activation” (Nature Communications, 2022)
